This data set can be described thus: yeast display, Sf9 membrane polyspecificity reagent, FACS + sequencing; frameworks hold sequencing errors. The essentials: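 Synthetic nanobody libraries on Saccharomyces cerevisiae BJ5465 were galactose-induced for 36–48 hours, stained 1 hour at 4 °C with 10% biotinylated, detergent-solubilized Sf9 membrane reagent and enriched on streptavidin microbeads. FACS then separated cells into low and high (top ~1%) gates by anti-HA (expression) and streptavidin (reagent binding) fluorescence. Genes were colony-PCR amplified, MiSeq 2 × 250 sequenced and CDR-length filtered. A clone's polyreactivity label is that of its gate of origin.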
For “QVQLVESGGGLVQAGCSLRLSCAASGSIFYFYGMGWYRQAPGKERELVASITYSGTSTYYADSVKGRFTISRDNAMITVYLQMNSLKPEDTAVYYCAASFYTVNSWYDSWGQGTQVTVSS”, the “polyreactivity (PSR sort gate)” value is reported as “low polyreactivity”.
As for “QVQLVESGGGLVQAGVSLRLSCAASGRISVFYTMGWYRQAPGKERELVAVNRTSGGRTNYADSVKGRFTISRDNAKNTVDLQMNSLKPEDTAVYYCAARVVRYGYKYYYWGQGTQVTVSS”, the “polyreactivity (PSR sort gate)” value is recorded as “low polyreactivity”.
Turning to “QLQLVESGGGLVQAGGSLRLSCAGSGGTFRVYAMGWYRQATGKERALVAAITGRGGSTYYADSVKGRFTISRDTAKNTVYLQMNSLKAEDTAVYYCAAVSFSDGSPYNYWGLGTQVTVSS”, the “polyreactivity (PSR sort gate)” value is “low polyreactivity”.
Consider “QVQLVESGGGLVQAGGSLRLSCAASGSTFHYYAMGWYRQAPGKERELVAAINSGARTYYADSVKGRFTISRDNAKNTVYLQMNSLKPEDTAVYYCNKAFQWSGGQVSYDFWGQGTQVTVSS”, for which the “polyreactivity (PSR sort gate)” value is reported as “low polyreactivity”.
In the case of “QVQLVESGGGLVQAGGSLRLSCAASGSNYSSNAMGWYRQATGKERELVAAISRSGVTTYYADSVKGRFTISRDNAKNTVYLQMNSLKPEDSAVYYCAAQPYSRLYGRYLGFQYKYDYWGQGTQLTVSS”, the “polyreactivity (PSR sort gate)” value was “low polyreactivity”.
For the sequence “QVQLVESGGGLVQAGGSLRLSCAASGRIFSVYAMGWYRQAPGKEREFVAAITKGGVGTYYADSVKGRFTISRDHAKNSVYLQMNSLKPEDTAVYYFAARHYYGADRYYSWGQGTQVTVSS”, the “polyreactivity (PSR sort gate)” value is listed as “high polyreactivity”.
Turning to “QVQLVESGGGLVQAGGSLSLSCAASGSISLVYAMGWYRQAPGKERELVAAISASGGRTYYADSVKGRFTISRDNAKNTVYLQMNSLKPEDTAVYYFSKDVKKIEFDYWGQGTQVTVSS”, the “polyreactivity (PSR sort gate)” value is on record as “high polyreactivity”.
To “QVQLQESGGGLVQAGGSQRLTCAASVYIFYFQYMGWYRQAPGKEREFVAAMSDGANTNYADSVKGRFTISRDNAKNTESLQMNSLKPEDTAGYYCAVYADENYYYIYGGQGTQVTVSS” belongs “low polyreactivity”; to “QVQLVESGGGIVQAGGSLRLSCAASGRTFGYYAMRWYRQAPGKERELVAAIYWSGGSTRYADSVKGRFTISRDNAKNTVYLQMNSLNPDDTAVYYCAADSWYSFAGVYRVYGEDYWGQGTEVTVSS”, “low polyreactivity”; to “QDQLVESGGGLVQAGGSLRLSCAASGIIFKYYAMGWYRQAPGKERELVAAITSGGSTNYADSVKGRFTISRDNAKNTVYLQMNSLKPEDTAVYYCAKRFYYRNRFDYWGHGTQVTVSS”, “low polyreactivity”.
As for “QVQLVESGGGLVQAGGSLRLSCAASGFTFSTNAMGWYRQAPGKERELVAAISRGGSTNYADSVKGRFTISRDIAKNTVYLQMNSLKPEDTAVYYCNAYQSPDEEEYYWGQGTQVTVSS”, the “polyreactivity (PSR sort gate)” value was “low polyreactivity”.
For the sequence “QVQLVESGGGLVQAGGSLRLSCAASGFTFTRNAMGWYRQAPGKERELVAAISKRGGTTYYADSVKGRFTISRDNAKNTVYLQMNSLKPEDTAVYYCAKDGGITGGYWGQGTQVTVSS”, the “polyreactivity (PSR sort gate)” value was “high polyreactivity”.
Consider “QVQLVESGGGLVQAGGSLRLSCAASGITFSYYAMGWYRQAPGKERELVAAISYTSGSTYYADSVKGRFTISRDNAKNTVYLQMNSLKPEDTAGYYCAARSRWSKQFRYDYWGQGTQVTVSS”, for which the “polyreactivity (PSR sort gate)” value is given as “high polyreactivity”.
Turning to “QVQLVESGGGLVQAGGSLRLSCAASGRTFRGYAMGWYRQAPGKERELVAAISSSGGRTYYADSVKGRFTISRDNAKNTVYLQMNSLKPEDTAVYYCAAAVTLSPAQYGYWGQGTQVTVSS”, the “polyreactivity (PSR sort gate)” value is recorded as “high polyreactivity”.
On to “QVQHVESRRGLVQAGGSLRLSCAASGFTFYSYAMGWYRQAPGKEREFVAAGSTYYADSVKGRFTISRDNAKNTDYLQMNSLKPEDTAVYYCATDPIGGWTRPQRYGDDYWGQGTQVTVSS”, for which the “polyreactivity (PSR sort gate)” value is listed as “low polyreactivity”.
Consider “QVQLVESGGGLVQAGGSLRLSCAASGSTFYLNAMGSYRQAPGKERELVAAISSGGRTYYADSVKGRFPISRDNAKNTDYLQMNSLKPEDTAVYYCNAVRYLRGAYNYWGQGTQVTVSS”, for which the “polyreactivity (PSR sort gate)” value is reported as “high polyreactivity”.
With “QVQLVESGGGLVQAGGSLRLSCAASGSTFGYAMGWNRQAPGKERELVAAINWSGSRTYYADSVKGRFTISRDNAKNTVYLQMNSLKPEDTAVYYCAVLYAGDSPDFDYWGQGSQVTVSS” the entry was “high polyreactivity”; with “QVQLVESGGGLVQAGGSLRLSCAASGSIFSQYAMGWYRQAPGKERELVAAISGGGGSTSYADSVKGRFTISRDNAKNTVYLQMNSLKPDDTAVYYCAAYLYNRPYQLTGYYDGYGYWGQGTQVTVSS”, “low polyreactivity”.
Take “QVQLVESGGGLVQAGGSLRLSCAASGITFFYYAMGWYRQAPGKEMELVAAIRYYGTSTYADSVKGRFTISRDNAKNTVYLQMNSLKPEDTAVYYCAAVFWFVGSLYDYWGQGTQVTVSS”: the “polyreactivity (PSR sort gate)” value is on record as “low polyreactivity”.
Turning to “QVQLVESGGGLVQAGGSLRLSCAASGSTLERNAMGWYRQAPGKERELVAAITSSTGSTYYADSVKGRFTISRDNAKNTVYLQMNSLKPEDTAVYYFAKRVASVQSNRHDYWGQGTQVTVSS”, the “polyreactivity (PSR sort gate)” value is listed as “high polyreactivity”.
With “QVQLVESGGGLVQAGGSLRLSCAASGFTFYQYAMGWYRQAPGKEREFVAAISSSGSSTYYADSVKGRFTISRDNAKNTVYLQMNSLKPEDTEVYYCNAYFRNWRYSPGGYWGQGTQVTVSS”, the “polyreactivity (PSR sort gate)” value is “high polyreactivity”.
“QVQLVESGGGLVQAGGSLRLSCAASGIIFYGYAMGWYRQAPGKERELVAAITYSGGSTYYADSVKGRFTISRDNAKNTVYLQMNSLKPEDTAVYYCAAYDAYSPYQALYDYWGQGTQVTVSS”: the “polyreactivity (PSR sort gate)” value is “low polyreactivity”.
With “QVQLVESGVRLVQAGGSLRLSCAASGSIFAKYTMGWYRPAPGKERELVAAITRSGTSTRYADSVKGRFTISRDNAKNTVYLQLNSLKPEDTAVYYCAASLYSWGQGTQVTVSS”, the “polyreactivity (PSR sort gate)” value is “high polyreactivity”.
To “QVQLVESGGGLVQAGGSLRLSCAASGFIFRVYGMGCYRQATAKERELVAAMTGGCGSTYYADSVKGRFTISRDNAKNTVYLQMNSLKPEDTAVYYCAAVRYSGVRYRYGIYSDTMDYWGQGTQVTVSS” belongs “high polyreactivity”.
To “QVQLVESGGGLVQAGGSLRLSCAASGRLFTIYAMGGYTQAPGKERELVATISRRGGSTYYADSVKGRFTISRDNAKNTVYLQMNSLKPEDTAVYYCAKRQRSKAAVAGYVDATGEMDYWGQGTQVTVSS” belongs “high polyreactivity”.
“QVQLVESGGGLVQAGGSLRLSCAASGSIFNGYTMGWYRQAPRKERELVAAISSRGGITYYADSVKGRFTISRDNAKNTVYLQMNSLKPEDTAVYYCAKTSGYYQAGSLKYGYWGQGTQVTVSS”: the “polyreactivity (PSR sort gate)” value is “high polyreactivity”.
For the sequence “QVQLVESGGGLVQAGGSLRLSCAASGFTFRVYAMGWYRQAPGKERDLVAPISLRGDRTYYADSVKGRFTISRDYAKNTEYLQMNRLKPEDTAVYYCHAYASYQISQDDYDYWGQGTQVTVSS”, the “polyreactivity (PSR sort gate)” value is “high polyreactivity”.
As for “QVQLVESGGGLVQAGGSLRLSCAASRSIFSAYAMGWYRQAPGKERELVAAISTSGYTNYADSVKGRFTISRDNAKNTVYLQMKSLTPEDTAVYYCAADRVYGDGTAGYGYEFDYWGQVTQVTVSS”, the “polyreactivity (PSR sort gate)” value is “low polyreactivity”.
To “QVQLVESGGGLVQAGGSLLLSCAASGFTFRYYAMGWNRQAPGKERELVAAINSGGSTNYADSVKGLFTISRDNAKNTVYLQMNSLKPEDTAVYYCAKRGRRGIEYLGSAEMDYWGEGTQVTVSS” belongs “low polyreactivity”; to “QVQLVESGGGLVQAGGSLRLSCAASGRTFTHYAMGWYRQAPGKERELVAAITASGGSTYYADSVKGRFTISRDNAQNTVYLQMNSLKPEDTAVYYCATEANQRTLNDTVKDYDYWGQGTQVTVSS”, “low polyreactivity”.

The values are drawn from the nanobody polyreactivity screen of Harvey et al. (2022).
